Where no end group is shown, it is not given here.
How the values were obtained:
[1] = molecular target: receptor on murine NIH-3T3 fibroblast cells (ATCC No. CCL92) to which 125I-GRP binds (murine) (UniProt P21729); assay: competition with […] 125I-GRP on NIH-3T3 cells; inhibitor at 1 nM
[2] = molecular target: receptor on murine NIH-3T3 fibroblast cells (ATCC No. CCL92) to which 125I-GRP binds (murine) (UniProt P21729); assay: competition with […] 125I-GRP on NIH-3T3 cells; inhibitor at 10 nM
[3] = molecular target: receptor on murine NIH-3T3 fibroblast cells (ATCC No. CCL92) to which 125I-GRP binds (murine) (UniProt P21729); assay: competition with […] 125I-GRP on NIH-3T3 cells; inhibitor at 100 nM
[4] = molecular target: receptor on murine NIH-3T3 fibroblast cells (ATCC No. CCL92) to which 125I-GRP binds (murine, UniProt P21729); assay: competition with 0.45 pM 125I-GRP on NIH-3T3 cells, filter assay
Protocol: Each tube was charged with 4 ×10^4 cells. […] Three control tubes with no cells or competitor were prepared for measurement of total counts added.
The samples were incubated for 30 min at RT. The contents of each tube were transferred into the wells of a 96-well filter bottom plate (Millipore Multiscreen, Arlington Heights, Mass.) and filtered under moderate vacuum (water aspirator). Each filter was washed three times by filling each well with ice cold PBS, Ph 7.4, 0.1% BSA. The plate was allowed to dry. Dried filters were placed into gamma-counter tubes (12×75 mm glass). The radioactivity on each filter and in the control tubes was counted using a LKB gamma counter. The bound/total added for each assay tube was calculated.

receptor on murine NIH-3T3 fibroblast cells (ATCC No. CCL92) to which 125I-GRP binds (murine), sequence (P21729 whole entry): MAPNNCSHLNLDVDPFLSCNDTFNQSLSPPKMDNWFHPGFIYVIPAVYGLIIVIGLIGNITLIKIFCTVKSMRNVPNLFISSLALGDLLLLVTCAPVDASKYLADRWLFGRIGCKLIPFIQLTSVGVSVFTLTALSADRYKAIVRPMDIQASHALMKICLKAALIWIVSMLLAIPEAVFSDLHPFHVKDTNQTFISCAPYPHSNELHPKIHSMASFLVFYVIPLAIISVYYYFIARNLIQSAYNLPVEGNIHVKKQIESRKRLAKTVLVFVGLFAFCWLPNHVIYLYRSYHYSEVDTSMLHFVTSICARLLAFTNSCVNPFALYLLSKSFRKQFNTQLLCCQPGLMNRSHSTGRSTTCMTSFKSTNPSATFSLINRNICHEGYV

| Binder | % BOUND (of I-125-GRP) [1] [%] | % INHIBITION [1] [%] | AVG CPM BOUND (of I-125-GRP) [1] [CPM] | % BOUND (of I-125-GRP) [2] [%] | % INHIBITION [2] [%] | AVG CPM BOUND (of I-125-GRP) [2] [CPM] | % BOUND (of I-125-GRP) [3] [%] | % INHIBITION [3] [%] | AVG CPM BOUND (of I-125-GRP) [3] [CPM] | IC50 [4] [nM] |
| --- | --- | --- | --- | --- | --- | --- | --- | --- | --- | --- |
| H-GNHWAVGHLM-NH2 [Neuromedin C (NMc, H-Gly-Asn-His-Trp-Ala-Val-Gly-His-Leu-Met-NH2)] | 2.2 | 63 | 1420 | 1.7 | 71 | 1130 | 1.4 | 76 | 940 |  |
| GNHWAVGHLM-NH2 (not fully specified (N-terminus); also: dimer: two chains on one 3,5-disubstituted benzoic acid via N-terminal thioureas) [Benzoic acid bis-thiourea derived from Neuromedin-C, compound 3] |  |  |  |  |  |  |  |  |  | 10.6 |
| Ac-GNHWAVGHLM (not fully specified (C-terminus); also: dimer: two chains on one 3,5-disubstituted benzoic acid via C-terminal thiosemicarbazides) [Benzoic acid bis-thiosemicarbazide derived from N-acetyl-Neuromedin C-hydrazide, compound 6] |  |  |  |  |  |  |  |  |  | 43.3 |
